{"source": "paper PMC3763534", "conditions_in_all_cases": "20 mM Hepes pH 7.5, 100 mM KAc, 200 mM KCl, 3 mM MgCl2, 1 mM TCEP; 37 C, 20 min; RNA folded in 20 mM Hepes pH 7.5, 150 mM KCl, 5 mM MgCl2", "key": {"[1]": {"tested_on": "40S ribosomal subunit (HeLa or RRL, used interchangeably) (Homo sapiens or rabbit)", "assay": "EMSA"}, "[2]": {"tested_on": "40S ribosomal subunit (HeLa) (Homo sapiens (HeLa))", "assay": "EMSA"}, "[3]": {"tested_on": "40S ribosomal subunit (RRL) (rabbit (reticulocyte lysate))", "assay": "EMSA"}, "80S ribosome": {"tested_on": "80S ribosome", "assay": "EMSA"}, "[4]": {"tested_on": "40S ribosomal subunit (HeLa or RRL, used interchangeably) (Homo sapiens or rabbit)", "assay": "filter binding"}, "[5]": {"tested_on": "40S ribosomal subunit (HeLa or RRL, used interchangeably);eIF3 (preparation not specified) (Homo sapiens or rabbit;Homo sapiens?)", "assay": "filter binding"}, "[6]": {"tested_on": "eIF3 (preparation not specified)", "assay": "filter binding"}}, "note": "pKd: −log10 of the molar value.", "data": [{"substance": "AGGUUGGGGUAAACACUCCGGCCUCUUAAGCCAUUUCCUGUUUUUUUUUUUUUUUUUUUUUUUUUUUUCUUUUUUUUUUUCUUUCCUUUCCUUCUUUUUUUCCUUUCUUUUUCCCUUCUUUAAUGGUGGCUCCAUCUUAGCCCUAGUCACGGCUAGCUGUGAAAGGUCCGUGAGCCGCAUGACUGCAGAGAGUGCUGAUACUGGCCUCUCUGCAGAUCAUGU [HCV 3'UTR genotype 1a]", "values": [{"measurement": "pKd", "setting": "[1]", "value": 8.17}]}, {"substance": "HCV 3'UTR", "values": [{"measurement": "pKd", "setting": "[2]", "value": 8.74}, {"measurement": "pKd", "setting": "[3]", "value": 8.27}, {"measurement": "pKd", "setting": "80S ribosome", "value": 7.93}, {"measurement": "pKd", "setting": "[4]", "value": 8.74}, {"measurement": "pKd", "setting": "[5]", "value": 9.00}, {"measurement": "pKd", "setting": "[6]", "value": 8.05}]}, {"substance": "HCV 3'UTR genotype 1b", "values": [{"measurement": "pKd", "setting": "[1]", "value": 8.33}]}, {"substance": "HCV 3'UTR genotype 2a", "values": [{"measurement": "pKd", "setting": "[1]", "value": 8.46}]}, {"substance": "HCV 3'UTR genotype 3a", "values": [{"measurement": "pKd", "setting": "[1]", "value": 8.43}]}, {"substance": "UAGACGAGCGGCCCUAAACAACACUCCAUAACAUUUUUUUUUUUUUUUUUUUUUUUUUUUUUUUUUUUUUUUUUUUUUUUUUUUUUUUUUUUUUUUCUUUCUUAUCUGUCUAUCCCUUAGACUCCUUCUUUGGUGGCUCCAUCUUAGCCCUAGUCACGGCUAGCUGUGAAAGGUCCGUGAGCCGCAUGACUGCAGAGAGUGCUGAUACUGGCCUCUCUGCAGUUCAUGU [HCV 3'UTR genotype 6b]", "values": [{"measurement": "pKd", "setting": "[1]", "value": 8.17}]}]}
